Among the data in the RNAGym collection of RNA variant scans (doi:10.7554/elife.90254) are self-cleavage values, retold here.

Sequences and labels used below:
B1: LINE1-mini (parent)
chain: GGCAGAGCUCAACACAGCGUGGCAAAGUGGCUGUGGCUAGACUGCC

Variants of B1 are the subject of the data set. The data set can be described thus: self-cleavage, relative activity (ratio to wild type); higher = more cleavage; in vitro, sequencing; the parent is a self-cleaving ribozyme.
Regarding A4G C23G, the self-cleavage stood at 0.41. For the variant A4G C23U, the self-cleavage was 0.5.

As for A4G C23A, the self-cleavage stood at 0.44. In the case of A4G C46A, the self-cleavage was 0.4.

Consider A4G C46U, for which the self-cleavage stood at 0.39. Take A4G C46G: the self-cleavage turned out to be 0.24. On to C3U G5A, for which the self-cleavage was 0.21. As to C3U G5C, the self-cleavage turned out to be 0.27. With C3U G5U the figure was 0.2; with A4G C13A, 0.27; with A4G C13G, 0.2. In the case of A4G C13U, the self-cleavage was 0.23. Turning to C3U G27A, the self-cleavage is 0.36. The value for C3U G27C was 0.2. Consider C3U G27U, for which the self-cleavage came to 0.41.

Take A4G G22U: the self-cleavage turned out to be 1.14. The value for A4G G22A was 1.25; that for A4G G22C was 0.91. With A4G C42G the figure was 0.02; with A4G C42A, 0.09; with A4G C42U, 0.22. The value for A4C C45A was 0.12. As to A4C C45U, the self-cleavage is 0.2. For A4C C45G, the self-cleavage was 0.17. The value for A4G G7A was 0.25. The value for A4G G7U was 0.18; that for A4G G7C was 0.15. With A4G G36C the figure was 0.16; with A4G G36A, 0.54. A4G G36U: the self-cleavage was 0.09.

As for A4G G19C, the self-cleavage was 0.23. Turning to A4G G19U, the self-cleavage came to 0.56. With A4G G19A the figure was 0.95. The value for A4G U20A was 0.19; that for A4G U20C was 0.48; that for A4G U20G was 0.23. The value for C3U C46A was 0.18. Turning to C3U C46G, the self-cleavage is 0.37. Take C3U C46U: the self-cleavage came out at 0.21. The value for C3U G17C was 0.18. C3U G17U: the self-cleavage came to 0.12.

Regarding C3U G17A, the self-cleavage was 0.1.

Consider C3U C42U, for which the self-cleavage was found to be 0.14. The value for C3U C42G was 0.07. Take C3U C42A: the self-cleavage turned out to be 0.09. As for A4C C18A, the self-cleavage was determined as 0.07. The value for A4C C18G was 0.11.

As for A4C C18U, the self-cleavage was 0.05. On to C3U C45U, for which the self-cleavage worked out at 0.32. The value for C3U C45A was 0.2; that for C3U C45G was 0.12. Turning to A4C A24U, the self-cleavage was determined as 0.17. The value for A4C A24G was 0.14. Take A4C A24C: the self-cleavage is 0.09.

As for A4C C15G, the self-cleavage amounted to 0.04. With A4C C15A the figure was 0.1; with A4C C15U, 0.13; with C3U G33U, 0.1. Consider C3U G33C, for which the self-cleavage worked out at 0.07.

With C3U G33A, the self-cleavage came to 0.13. The value for C3U G44C was 0.35. Regarding C3U G44A, the self-cleavage was determined as 1.07.

In the case of C3U G44U, the self-cleavage was determined as 0.23.

On to A4G G44U, for which the self-cleavage is 0.16. With A4G G44C the figure was 0.08; with A4G G44A, 0.48; with A4G A11G, 0.12.

In the case of A4G A11U, the self-cleavage turned out to be 0.05.

Take A4G A11C: the self-cleavage was determined as 0.04. For the variant A4G U28G, the self-cleavage was determined as 0.3.

With A4G U28A, the self-cleavage was 0.13. With A4G U28C the figure was 1.09; with C3U U34G, 0.07; with C3U U34A, 0.06. Turning to C3U U34C, the self-cleavage worked out at 0.07. Take C3U G19U: the self-cleavage was found to be 0.32. With C3U G19C the figure was 0.25; with C3U G19A, 0.83. The value for C3U G40U was 0.12; that for C3U G40C was 0.07; that for C3U G40A was 0.12. As for A4C C10G, the self-cleavage was 0.03. As to A4C C10U, the self-cleavage was 0.09.

Regarding A4C C10A, the self-cleavage came out at 0.04. With A4C G44C the figure was 0.12; with A4C G44U, 0.13; with A4C G44A, 0.16. The value for A4G U9C was 0.02. The value for A4G U9G was 0.23; that for A4G U9A was 0.21; that for A4G U38G was 0.04. Regarding A4G U38C, the self-cleavage came out at 0.31. The value for A4G U38A was 0.23.

Take A4G A41U: the self-cleavage is 0.3.

In the case of A4G A41C, the self-cleavage was determined as 0.19. As for A4G A41G, the self-cleavage was determined as 0.11. The value for A4G G5C was 0.07; that for A4G G5A was 0.15; that for A4G G5U was 0.16. The value for A4C A25U was 0.13; that for A4C A25G was 0.12; that for A4C A25C was 0.06.

As to A4C G22U, the self-cleavage is 0.52. As to A4C G22C, the self-cleavage is 0.08.

On to A4C G22A, for which the self-cleavage came out at 0.09. With A4G A16U the figure was 0.16; with A4G A16G, 0.16. Turning to A4G A16C, the self-cleavage was 0.12. With A4G G40A the figure was 0.13; with A4G G40C, 0.1; with A4G G40U, 0.15. The value for A4G C31A was 0.12; that for A4G C31G was 0.31; that for A4G C31U was 0.14.

For A4C C8A, the self-cleavage was found to be 0.32.

Take A4C C8U: the self-cleavage was 0.22. The value for A4C C8G was 0.07; that for A4C C42G was 0.05; that for A4C C42A was 0.13.

For A4C C42U, the self-cleavage came to 0.2. The value for A4G A26G was 0.48; that for A4G A26U was 0.39. Consider A4G A26C, for which the self-cleavage came to 0.63. A4G C8G: the self-cleavage is 0.11. Consider A4G C8A, for which the self-cleavage came to 0.32.

A4G C8U: the self-cleavage is 0.24.

Regarding C3U G7A, the self-cleavage was 0.26. The value for C3U G7C was 0.17; that for C3U G7U was 0.11; that for A4C U9G was 0.24.

In the case of A4C U9C, the self-cleavage was 0.04. As to A4C U9A, the self-cleavage worked out at 0.18. A4C A14C: the self-cleavage came to 0.1. The value for A4C A14G was 0.1; that for A4C A14U was 0.22; that for A4C G30A was 0.24. With A4C G30C the figure was 0.07. In the case of A4C G30U, the self-cleavage came out at 0.19. As for A4G A25C, the self-cleavage came to 0.78. The value for A4G A25G was 0.36; that for A4G A25U was 0.62. The value for C3U G22U was 0.82; that for C3U G22A was 0.34; that for C3U G22C was 0.48. With C3U C31U the figure was 0.1; with C3U C31G, 0.04.

For the variant A4U A6G, the self-cleavage is 0.16. Consider A4U A6C, for which the self-cleavage turned out to be 0.06. For A4C G35A, the self-cleavage was 0.17. For A4C G35C, the self-cleavage was determined as 0.11.

For A4C G35U, the self-cleavage is 0.18.

Take A4G U34C: the self-cleavage worked out at 0.12. Take A4G U34G: the self-cleavage is 0.08. With A4G U34A the figure was 0.07; with A4C U38G, 0.04; with A4C U38A, 0.12. For A4C U38C, the self-cleavage worked out at 0.12. Regarding A4C U28A, the self-cleavage was determined as 0.07. With A4C U28C, the self-cleavage worked out at 0.22. With A4C U28G the figure was 0.18; with A4G G29U, 0.63. With A4G G29A the figure was 0.36. The value for A4G G29C was 0.12; that for A4C G5C was 0.08. On to A4C G5A, for which the self-cleavage came to 0.12. Turning to A4C G5U, the self-cleavage is 0.21. The value for A4C G7U was 0.21.
